Test results published in the RNAGym collection of RNA variant scans (doi:10.1073/pnas.2313332121).

B1: TPR t1 (parent)
chain: GACCAAUCUGCCCUCAGAGCUCGAGAACAUCUUCGGAUGCAGAGGAGGCAGGCUUCGGUGGCGCGAUAGCGCCAACGUCCUCAACCUCCAAUGCAUCCCACCACAUGAUGAUGCCUGAAGAGCCUUGGUUUUUUG

Variants of: B1
Assay: polymerase ribozyme fitness, log enrichment relative to wild type (log ratio); higher = more active; in vitro selection for triplet polymerase activity
How it was run: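 A heterodimeric triplet polymerase ribozyme had each of its subunits mutagenized by PCR into a library, which was transcribed. One round of in vitro selection, done in triplicate, annealed each library with a biotinylated primer, its partner subunit and triplets, then incubated it frozen at −7 °C before gel excision of extended constructs, streptavidin-bead capture and RT-PCR. Fitness is the logarithm of genotype enrichment relative to wild-type enrichment, based on Illumina sequencing of inputs and outputs and inverse-variance-weighted replicate averages. A base-2 logarithm is used, and genotypes were kept only with ≥10 input reads and ≥1 read per output.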

Variant	polymerase ribozyme fitness (log ratio)
G10U U55C C123A	0.286
C11A G57A C73A C88G	-4.51
A43U C49G	-3.61
G69A U132C	-2.86
G69A U125A	-3.21
G23A C72G	-4.87
G45U G120A	-0.795
U32C C85G	-2.56
C56G C70U U96G C101U A111U	-5.15
C11U C12U C15U C53A C80U C88U C104U A111U A118G	-6.72
C73A A108G U116A C123U	-5.63
C11A G69U C94U U130A	-1.6
C70U C72U A95C A111U	-5.58
G45A A46U	-1.72
G39C G61C A83G	-3.89
C11A A18U G127A	-4.94
C3U G39C G117U U133G	-4.12
C56G C72G U87G C98U	-1.99
A50G C73U C88U C124A	1.42
G69U U112G C124A U133C	2.87
G48U G120C	-0.358
U9G C22U U54G C104U	-4.59
C97G	-4.4
C101A C102A	-5

Variant	polymerase ribozyme fitness (log ratio)
A16U G47C G71U	-4.17
C56U C85G	-2.65
A43C C76U C98U G117U	-7.18
G60C A121C U130A	0.0713
G52U U125A	-0.984
U32G C62A C102A A111G	-6.35
A37U C40U A50C G51C A74U U109A U131G	-5.36
A121U U125A	1.66
U9A U30C G44A G57U G60A	-4.18
A27G G135U	-2.21
A6C A37C A111U	-3.49
C11A C49G U129C	-2.01
U7C C34U C49A A50C	-5.35
G36U U130G	-2.05
A37U G51U G60C C85U U96A G113A	-4.21
C99U U132C	-3.53
U7G G52A U106C G122U U131G	-0.951
C56A C72U G93U	-1.63
A18G G19U A46C C56A U87A	-2.82
C12G C20U C123U U125C	-0.31
U7A C56G U92C	-1.74
U9A G71U U87A C89A U112G	-5.05
G63C C80U	-2.4
G47A G61A A84C	-1.29

Variant	polymerase ribozyme fitness (log ratio)
G23A U106A	-3.44
A26G G63C	-1.65
G44A G61U C88G	-2.64
C15A G47U C64U C123U	-2.43
G35A G57U A74U	-4.21
A24C C40U G42A C73A A95U C101U G120A U130C	-7.09
C99A C102U	-4.82
G44U A84C A91C	-1.65
A37U G39A	-1.34
C8U G93U C102U G120C	-1.01
U54C U109A G120C	-5.52
C114U U129G	-4.52
A6U C20U A37U G61A	-0.862
U9G G45A C49U C72U G93A	-1.56
U38G U87A A95C	-1.01
C8G G117C C124A	-0.905
G44U U78C A108G	-4.95
C72A C88U	-0.32
A5C A6U U32C G69C	-1.62
U78A G113C	-2.57
C70A C124U	-0.369
A5U C40A	-2.19
A24U C94U A103U G110C G120C U131A	-5.54
C8A G25U	-4.13

Variant	polymerase ribozyme fitness (log ratio)
G35A G42A U106A U112G A121C G127U G128A	-5.37
C15U A16U G71A C115A	-3.96
C11G G23A C76U	-6.14
C40A A41U G57C C104U C114U	-3.33
G57C C82G A95G A111U C123U	-5.52
A50G C53G G61A U116A G117A	-3.29
C3A U33A G48U A121C C124G	-4.93
U9C G48C C101A G117A	-1.58
A41C C72U A74G A91U A95C G113A	-3.31
G69U C123A	1.34
A6U A18U G93C C102U	-6.29
C22G A26G C56G A75G	-5.33
U7C C49U A50C C99U A100U G117U	-6.3
C56G U133A	-0.615
C72A C101A	-1.15
C8A A111U	-1.79
G39A G113C	-2.69
G36U U112G	-1.32
A29U A41C	-2
G69A C82G	-3.32
G39C G48U G57C	-1.92
C11G C22U C34A A37U C88A U96G C115U	-7.3
A29U C98U	-3.59
U59G C62A A95U	-3.76

Variant	polymerase ribozyme fitness (log ratio)
U38G U78G	-0.583
G60A C64U	-2.43
C12G C53A	0.285
C11G U38A G45U A50C	-2.51
C49G G127A	-1.65
A43C C115U	-3.33
C56A U96A	-1.63
C12U U14G C79U	0.109
C94A U129C	-0.753
C20G C49A U96G U112G C115G C123A	-7.57
A84C C98U	-1.5
G36U U116A	-4.2
U81C C82A C98U	-3.03
U9G C123G	1.31
G52U U129G	-2.57
G10A A29C G39A G69U	-2.05
A37G A121C	2.11
G35C A95U	-4.31
U78G G120A	0.634
C62A G77U C114G	-4.81
C102A G120U U130G	-2.39
C11U C20G G117U	-4.42
G71U A103G	-5.01
C40G G57A A84C U112A G122A	-3.59

Variant	polymerase ribozyme fitness (log ratio)
U78A G117C A121C	-5.24
A41U C80A C104U	-6.34
G42U G63A C89U	-3.28
U7C G44A	-0.534
C101U U112C	0.493
U14G G42C A46C C53U G61A	-4.45
C11A C53G G57A C123G	-1.45
C15U U96A A119G	0.622
G48C C104U	-0.793
U7G C98U	-0.713
A24G C62A	-2.63
G10A A37U C53A C56G G69A C88U G120C G122U	-1.99
C13U C102U G117U	-3.38
C101U G110C	-3.42
A2C A37U C56G G69A U78G G120U	-5.2
A5G A103C C104A	-3.08
G47A G69C C101U G122A	-3.07
C70U C104U U130G	-0.752
C15A G19U G63C G113A G135C	-3.99
C70U C80U	-0.851
A43G C73G U78A A111G	-3.33
G63U A84C U130A	-2.23
G42U G93C U133A	-3.57
G63A U116C	-0.908

Variant	polymerase ribozyme fitness (log ratio)
U109G	-4.35
C8G C62U U87A U112G G113U C123U G127A	-4.35
C49G C53A C64U	-0.365
A41U G45C C114A	-4.37
A37G G60U C80A	-5.24
C22G C97A	-5.26
C15U C53A A83C	-1.46
C3A C56G G61A U81A U131C	-4.05
A18C G19U C72G C102A C104G U106A C123G	-5.8
G36U A118U	-1.08
A46U C56G G61U A105U C123U	-5.93
C13U G44A C49U C86G C102U U106G U112G A121C U131A U133A	-6.07
C4A C40U G61U	-1.92
A2C G44C	-3.44
G60C C88U G117A	-1.68
A5G U38G G48C G69U C79A	-2.33
A5U G44C	-1.05
A50C A66C A100U	-3.95
A24G A90U	-2.52
G10A C15G G61U	-3.16
C89G C124A	0.877
C3A A46U A50U G57A	-4.95
C11U G52A U92G C102A G122U	-6.57
